According to paper PMC6249299, “A split luciferase-based probe for quantitative proximal determination of Gαq signalling in live cells” (Scientific Reports, 2018):

T1: CBRN-PLC-β3 fusion protein (phospholipase C-β3 with CBRN at its N-terminus) (UniProt Q01970 1-1234)
T1 construct: phospholipase C-β3 (PLC-β3); also called N-terminally-tagged PLC-β3; PLC-β3 sensor protein; not shown: CBRN (N-terminal fragment of red click-beetle luciferase, amino acids 1-416), N-terminal, kept
T1 sequence (looked up): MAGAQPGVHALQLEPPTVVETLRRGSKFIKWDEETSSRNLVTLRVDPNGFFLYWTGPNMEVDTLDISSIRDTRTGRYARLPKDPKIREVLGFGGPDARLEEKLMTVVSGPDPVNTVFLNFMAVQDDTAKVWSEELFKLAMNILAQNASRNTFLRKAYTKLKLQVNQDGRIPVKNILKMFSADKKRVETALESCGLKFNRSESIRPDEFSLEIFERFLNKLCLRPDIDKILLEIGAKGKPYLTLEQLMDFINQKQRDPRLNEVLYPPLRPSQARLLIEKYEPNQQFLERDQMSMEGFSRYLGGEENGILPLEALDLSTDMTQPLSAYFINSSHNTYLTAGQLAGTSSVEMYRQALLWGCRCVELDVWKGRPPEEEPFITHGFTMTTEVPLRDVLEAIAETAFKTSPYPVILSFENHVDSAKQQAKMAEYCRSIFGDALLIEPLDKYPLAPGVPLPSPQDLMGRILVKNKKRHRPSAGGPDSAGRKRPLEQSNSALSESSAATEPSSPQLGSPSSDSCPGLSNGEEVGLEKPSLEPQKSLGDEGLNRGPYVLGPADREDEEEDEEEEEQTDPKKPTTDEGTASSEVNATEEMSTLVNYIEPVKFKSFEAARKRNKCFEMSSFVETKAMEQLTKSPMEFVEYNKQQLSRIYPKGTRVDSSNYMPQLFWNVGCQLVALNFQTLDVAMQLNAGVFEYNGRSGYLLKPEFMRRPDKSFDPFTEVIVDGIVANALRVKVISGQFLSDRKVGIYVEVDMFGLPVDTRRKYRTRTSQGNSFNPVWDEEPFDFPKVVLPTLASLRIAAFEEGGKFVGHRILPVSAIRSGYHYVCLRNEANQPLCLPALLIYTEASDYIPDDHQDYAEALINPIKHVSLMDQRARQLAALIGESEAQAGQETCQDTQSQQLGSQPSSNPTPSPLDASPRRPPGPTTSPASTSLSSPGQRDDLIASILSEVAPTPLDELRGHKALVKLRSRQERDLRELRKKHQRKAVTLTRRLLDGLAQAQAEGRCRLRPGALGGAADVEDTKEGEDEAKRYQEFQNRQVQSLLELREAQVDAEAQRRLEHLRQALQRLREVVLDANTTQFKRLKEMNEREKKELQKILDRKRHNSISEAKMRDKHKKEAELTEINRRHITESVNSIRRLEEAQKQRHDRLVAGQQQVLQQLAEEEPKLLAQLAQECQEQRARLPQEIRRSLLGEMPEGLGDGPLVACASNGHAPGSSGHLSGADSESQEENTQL

B1: Gαq(123) fusion protein (CBRC integrated into the Gαq sequence after amino acid 123) (natural protein, UniProt P50148 1-359, looked up)
chain: MTLESIMACCLSEEAKEARRINDEIERQLRRDKRDARRELKLLLLGTGESGKSTFIKQMRIIHGSGYSDEDKRGFTKLVYQNIFTAMQAMIRAMDTLKIPYKYEHNKAHAQLVREVDVEKVSAFENPYVDAIKSLWNDPGIQECYDRRREYQLSDSTKYYLNDLDRVADPAYLPTQQDVLRVRVPTTGIIEYPFDLQSVIFRMVDVGGQRSERRKWIHCFENVTSIMFLVALSEYDQVLVESDNENRMEESKALFRTIITYPWFQNSSVILFLNKKDLLEEKIMYSHLVDYFPEYDGPQRDAQAAREFILKMFVDLNPDSDKIIYSHFTCATDTENIRFVFAAVKDTILQLNLKEYNLV
notes: Gαq (G protein alpha q subunit); also called modified Gαq; Gαq sensor protein
B2: Gαq(97) fusion protein (CBRC integrated into the Gαq sequence after amino acid 97) (natural protein, UniProt P50148 1-359, looked up)
chain: B1 chain
notes: Gαq (G protein alpha q subunit); CBRC inserted after amino acid 97 with flexible Gly/Ser linkers; source: HEK293T, transfected, in cells; not shown: CBRC (C-terminal fragment of red click-beetle luciferase, amino acids 394-542), internal (after residue 97), kept

Biological target: T1, CBRN-PLC-β3 fusion protein …
Assay: split reporter (BiFC, NanoBiT); split click-beetle luciferase complementation in live HEK293T cells expressing the sensor and a GPCR (hH1R; also hM1,3,5R, hNTS1R); D-luciferin added to the cells, L-15 with 5% FCS, 37 °C; stimulated with agonist (histamine)
Conditions: partners not purified

| Binder | S/B ratio (signal-to-background of luminescence) | fold lower S/B ratio than the sensor with Gαq(123) [fold] |
| --- | --- | --- |
| B1 | ~5 | – |
| B2 | – | ~3 |
